B1: NRC3_wobSeed93_DR3_A9C_o1 (dsDNA)
DNA 1: GCAGTCAACGTTCATCTAGGTAACGTAAGATATGCTGCGATTGACAGCGTAGAATGAAGG
DNA 2: CCTTCATTCTACGCTGTCAATCGCAGCATATCTTACGTTACCTAGATGAACGTTGACTGC
B2: NRC3_wobSeed76_DR3_T21G_o1 (dsDNA)
DNA 1: GCCCTACTGGGCCAAAAAGGGCATTGATGCCGATAAGCGATTGACAGCGTAGAATGAAGG
DNA 2: CCTTCATTCTACGCTGTCAATCGCTTATCGGCATCAATGCCCTTTTTGGCCCAGTAGGGC
B3: NRC3_random_hg19_116_o1 (dsDNA)
DNA 1: GCTGGGCACATGAGGGATGGGAGTTGATCTCTGTGGGCGATTGACAGCGTAGAATGAAGG
DNA 2: CCTTCATTCTACGCTGTCAATCGCCCACAGAGATCAACTCCCATCCCTCATGTGCCCAGC
B4: NRC3_random_hg19_496_o1 (dsDNA)
DNA 1: GCAGCATCTGACAAGGCTGACTACTCCCATCTGGATGCGATTGACAGCGTAGAATGAAGG
DNA 2: CCTTCATTCTACGCTGTCAATCGCATCCAGATGGGAGTAGTCAGCCTTGTCAGATGCTGC
B5: NRC3_random_hg19_454_o1 (dsDNA)
DNA 1: GCTGTCCTTTGTAGCAACATGTATGGAAATGGAGGCGCGATTGACAGCGTAGAATGAAGG
DNA 2: CCTTCATTCTACGCTGTCAATCGCGCCTCCATTTCCATACATGTTGCTACAAAGGACAGC
B6: NRC3_random_hg19_466_o1 (dsDNA)
DNA 1: GCAGCTTGACTTTGGTGACATTCTTCCTTCGTCCCTGCGATTGACAGCGTAGAATGAAGG
DNA 2: CCTTCATTCTACGCTGTCAATCGCAGGGACGAAGGAAGAATGTCACCAAAGTCAAGCTGC
B7: NRC3_wobSeed10_DR0_C13A_o1 (dsDNA)
DNA 1: GCATCGAAAGGTAGAGGTGAGTATAGAGAAAGGGAAGCGATTGACAGCGTAGAATGAAGG
DNA 2: CCTTCATTCTACGCTGTCAATCGCTTCCCTTTCTCTATACTCACCTCTACCTTTCGATGC
B8: NRC3_random_hg19_267_o1 (dsDNA)
DNA 1: GCGCCTCAGTCATGAGTCACATGAAAGTGACTCACCGCGATTGACAGCGTAGAATGAAGG
DNA 2: CCTTCATTCTACGCTGTCAATCGCGGTGAGTCACTTTCATGTGACTCATGACTGAGGCGC
B9: NRC3_random_hg19_40_o1 (dsDNA)
DNA 1: GCAAGAACCAGTGGATTCATAAGGGTGACAGTTCAGGCGATTGACAGCGTAGAATGAAGG
DNA 2: CCTTCATTCTACGCTGTCAATCGCCTGAACTGTCACCCTTATGAATCCACTGGTTCTTGC
B10: NRC3_wobSeed114_DR4_T12C_o1 (dsDNA)
DNA 1: GCAATACAGGGCCATCGTAGGCCAGAGTACGCACAGGCGATTGACAGCGTAGAATGAAGG
DNA 2: CCTTCATTCTACGCTGTCAATCGCCTGTGCGTACTCTGGCCTACGATGGCCCTGTATTGC
B11: NRC3_wobSeed124_DR5_C24G_o1 (dsDNA)
DNA 1: GCCCTACTGGGCCATTCAGAGGTGATTGATCATATGGCGATTGACAGCGTAGAATGAAGG
DNA 2: CCTTCATTCTACGCTGTCAATCGCCATATGATCAATCACCTCTGAATGGCCCAGTAGGGC
B12: NRC3_wobSeed32_DR1_A25C_o1 (dsDNA)
DNA 1: GCTCTTGTAGATCAAAGGTTAAGACAGCCGAAGCCTGCGATTGACAGCGTAGAATGAAGG
DNA 2: CCTTCATTCTACGCTGTCAATCGCAGGCTTCGGCTGTCTTAACCTTTGATCTACAAGAGC
B13: NRC3_wobSeed32_DR1_G18A_o1 (dsDNA)
DNA 1: GCTCTTGTAGATCAAAGATTAAGAAAGCCGAAGCCTGCGATTGACAGCGTAGAATGAAGG
DNA 2: CCTTCATTCTACGCTGTCAATCGCAGGCTTCGGCTTTCTTAATCTTTGATCTACAAGAGC
B14: NRC3_wobSeed30_DR1_G16C_o1 (dsDNA)
DNA 1: GCACTAGCAGGCCAACGGTCACTCAAGATTAGTCCGGCGATTGACAGCGTAGAATGAAGG
DNA 2: CCTTCATTCTACGCTGTCAATCGCCGGACTAATCTTGAGTGACCGTTGGCCTGCTAGTGC
B15: NRC3_wobSeed99_DR4_A24C_o1 (dsDNA)
DNA 1: GCTCTCGGAGGACACGAAAGGTCCGAGCTCGACATCGCGATTGACAGCGTAGAATGAAGG
DNA 2: CCTTCATTCTACGCTGTCAATCGCGATGTCGAGCTCGGACCTTTCGTGTCCTCCGAGAGC
B16: NRC3_wobSeed42_DR1_T12A_o1 (dsDNA)
DNA 1: GCTATACAGGGACAAAGGCCAGAGTACGAATGTCGAGCGATTGACAGCGTAGAATGAAGG
DNA 2: CCTTCATTCTACGCTGTCAATCGCTCGACATTCGTACTCTGGCCTTTGTCCCTGTATAGC
B17: NRC3_random_hg19_470_o1 (dsDNA)
DNA 1: GCCAGGAAGGGACAAAGGCCAGGCATGGTGGTTCATGCGATTGACAGCGTAGAATGAAGG
DNA 2: CCTTCATTCTACGCTGTCAATCGCATGAACCACCATGCCTGGCCTTTGTCCCTTCCTGGC
B18: NRC3_wobSeed47_DR1_T18G_o1 (dsDNA)
DNA 1: GCGGAACGAGGGCAAAGGTGATAGCATCTGTCGACGGCGATTGACAGCGTAGAATGAAGG
DNA 2: CCTTCATTCTACGCTGTCAATCGCCGTCGACAGATGCTATCACCTTTGCCCTCGTTCCGC
B19: NRC3_wobSeed120_DR4_G20T_o1 (dsDNA)
DNA 1: GCCCGAGTAGGTTACGAGGTGGCATTCAGTGCGAATGCGATTGACAGCGTAGAATGAAGG
DNA 2: CCTTCATTCTACGCTGTCAATCGCATTCGCACTGAATGCCACCTCGTAACCTACTCGGGC
B20: NRC3_wobSeed120_DR4_G21C_o1 (dsDNA)
DNA 1: GCCCGAGTAGGTTACGAGGGCGCATTCAGTGCGAATGCGATTGACAGCGTAGAATGAAGG
DNA 2: CCTTCATTCTACGCTGTCAATCGCATTCGCACTGAATGCGCCCTCGTAACCTACTCGGGC
B21: NRC3_wobSeed82_DR3_G20T_o1 (dsDNA)
DNA 1: GCATCGAAAGGTCGACGAGTTGAGTATACACCGTTTGCGATTGACAGCGTAGAATGAAGG
DNA 2: CCTTCATTCTACGCTGTCAATCGCAAACGGTGTATACTCAACTCGTCGACCTTTCGATGC
B22: NRC3_random_hg19_133_o1 (dsDNA)
DNA 1: GCTCAAGGAGAAAGACACTCCTTTGAAGCGTTGGAAGCGATTGACAGCGTAGAATGAAGG
DNA 2: CCTTCATTCTACGCTGTCAATCGCTTCCAACGCTTCAAAGGAGTGTCTTTCTCCTTGAGC
B23: NRC3_wobSeed66_DR2_G9C_o1 (dsDNA)
DNA 1: GCAATACACGGTCACTAGGCCAGAGTAGGTACGAATGCGATTGACAGCGTAGAATGAAGG
DNA 2: CCTTCATTCTACGCTGTCAATCGCATTCGTACCTACTCTGGCCTAGTGACCGTGTATTGC
B24: NRC3_random_hg19_279_o1 (dsDNA)
DNA 1: GCTGCAGTGGTAACAGTCTGACTTCTAAACTGCTATGCGATTGACAGCGTAGAATGAAGG
DNA 2: CCTTCATTCTACGCTGTCAATCGCATAGCAGTTTAGAAGTCAGACTGTTACCACTGCAGC

What follows are binders tested against RARa:RXRa (Homo sapiens, UniProt P10276;P19793 full;full) (assay: no ligand; PBM; 270 nM : 90 nM RXRa; PBS pH 7.4, 2% milk, 0.02% Triton X-100, 1 mM DTT, BSA, 0.4 mg/ml salmon testes DNA). Conditions: tags: His kept;His cleaved; copies: 1;1; label: surface-attached array probe.
Sequence of RARa:RXRa (P10276 whole entry, chain 1 of 2): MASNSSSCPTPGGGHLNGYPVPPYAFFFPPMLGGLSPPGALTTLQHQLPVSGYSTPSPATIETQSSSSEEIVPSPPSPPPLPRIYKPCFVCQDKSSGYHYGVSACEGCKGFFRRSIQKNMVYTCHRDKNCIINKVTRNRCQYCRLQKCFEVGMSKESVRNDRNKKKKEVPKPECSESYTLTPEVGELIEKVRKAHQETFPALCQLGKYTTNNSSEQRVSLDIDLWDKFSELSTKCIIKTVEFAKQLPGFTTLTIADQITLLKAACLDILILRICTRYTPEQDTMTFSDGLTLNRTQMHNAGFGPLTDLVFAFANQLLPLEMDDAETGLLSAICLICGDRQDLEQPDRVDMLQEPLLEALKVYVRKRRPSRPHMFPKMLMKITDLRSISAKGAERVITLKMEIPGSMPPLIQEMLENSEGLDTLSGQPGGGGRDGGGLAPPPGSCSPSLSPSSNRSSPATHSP
Sequence of RARa:RXRa (P19793 whole entry, chain 2 of 2): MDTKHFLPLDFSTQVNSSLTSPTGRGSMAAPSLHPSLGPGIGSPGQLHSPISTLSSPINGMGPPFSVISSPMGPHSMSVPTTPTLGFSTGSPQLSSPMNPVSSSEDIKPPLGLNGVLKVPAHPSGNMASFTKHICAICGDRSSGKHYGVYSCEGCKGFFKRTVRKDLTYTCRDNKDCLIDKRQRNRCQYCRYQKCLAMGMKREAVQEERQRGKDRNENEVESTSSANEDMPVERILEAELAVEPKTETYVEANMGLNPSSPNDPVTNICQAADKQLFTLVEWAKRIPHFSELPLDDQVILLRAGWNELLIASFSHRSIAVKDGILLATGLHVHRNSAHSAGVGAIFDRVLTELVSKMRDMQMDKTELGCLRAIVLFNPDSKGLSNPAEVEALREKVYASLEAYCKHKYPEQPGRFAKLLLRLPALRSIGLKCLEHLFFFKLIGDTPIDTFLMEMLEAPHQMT
How it was run: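 Custom Agilent 4×180K protein-binding microarrays carried double-stranded probes, each with a 34-nt variable region. These regions held direct-repeat seeds, single-nucleotide variants, half-site ablations and random human genomic background sequences. Ligand-free nuclear receptor dimers were incubated on the arrays for 1 h, antibodies against each partner (one per run) detected binding, and scanned fluorescence was regression-normalized. Binding z-scores take the random background probes as reference.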

Binder | binding signal
B1 | 0.24 PBM z-score against 500 random probes
B2 | -0.04 PBM z-score against 500 random probes
B3 | -0.48 PBM z-score against 500 random probes
B4 | -0.43 PBM z-score against 500 random probes
B5 | 0.46 PBM z-score against 500 random probes
B6 | 0.17 PBM z-score against 500 random probes
B7 | 0.4 PBM z-score against 500 random probes
B8 | -0.31 PBM z-score against 500 random probes
B9 | 0.33 PBM z-score against 500 random probes
B10 | -0.01 PBM z-score against 500 random probes
B11 | 0.45 PBM z-score against 500 random probes
B12 | 3.05 PBM z-score against 500 random probes
B13 | 0.26 PBM z-score against 500 random probes
B14 | 0.08 PBM z-score against 500 random probes
B15 | 0.41 PBM z-score against 500 random probes
B16 | 0.27 PBM z-score against 500 random probes
B17 | -0.18 PBM z-score against 500 random probes
B18 | 3.09 PBM z-score against 500 random probes
B19 | 0.47 PBM z-score against 500 random probes
B20 | 0.37 PBM z-score against 500 random probes
B21 | 3 PBM z-score against 500 random probes
B22 | -0.29 PBM z-score against 500 random probes
B23 | 0.46 PBM z-score against 500 random probes
B24 | -0.56 PBM z-score against 500 random probes

Reference: article PMC6555819, “Comprehensive study of nuclear receptor DNA binding provides a revised framework for understanding receptor specificity”
